Entries after “also recorded” stand apart in the source; their conditions may differ. Where no end group is shown, it is not given here.

Consider 6 molecules from patent US20240117073A1, “METHODS OF TREATING NEOPLASTIC ASTROCYTOMA” (Ludwig Institute for Cancer Research Ltd., priority 2009, published 2024).

Test [1] concerns the target EGFR peptide 287-302 (806 peptide epitope) (human). The experiment in a line: BIAcore, peptide 287-302 immobilised by amine coupling.
Test [2] has the same target. The experiment in a line: BIAcore, peptide 287-302 immobilised by thiol coupling.
Test [3] has the same target. As to the kind of experiment: BIAcore, peptide 287-302 immobilised by Pms-Ser coupling.
Test [4] deals with xenograft A431. The experiment in a line: immunohistochemistry of xenograft sections. On the set-up: species or system human. Here is the method: (§1) Xenografts were excised and bisected. One half was fixed in 10% formalin/PBS before being embedded in paraffin. Four micron sections were then cut and stained with haematoxylin and eosin (H&E) for routine histological examination. The other half was embedded in Tissue Tek® OCT compound (Sakura Finetek, Torrance, CA), frozen in liquid nitrogen and stored at −80° C. Thin (5 micron) cryostat sections were cut and fixed in ice-cold acetone for 10 min followed by air drying for a further 10 min. Sections were blocked in protein blocking reagent (Lipshaw Immunon, Pittsburgh U.S.A.) for 10 min and then incubated with biotinylated primary antibody (1 mg/ml), for 30 min at room temperature (RT). All antibodies were biotinylated using the ECL™ protein biotinylation module (Amersham, Baulkham Hills, Australia), as per the manufacturer's instructions. After rinsing with PBS, sections were incubated with a streptavidin horseradish peroxidase complex for a further 30 min (Silenus, Melbourne, Australia). Following a final PBS wash the sections were exposed to 3-amino-9-ethylcarbozole (AEC) substrate (0.1 M acetic acid, 0.1 M sodium acetate, 0.02 M AEC (Sigma Chemical Co., St Louis, MO)) in the presence of hydrogen peroxide for 30 min. Sections were rinsed with water and counterstained with hematoxylin for 5 min and mounted.
(§2) Bound antibody was detected using the Dako Envision™+HRP detection system as per manufacturer's instructions. Sections were finally rinsed with water, counterstained with hematoxylin and mounted.

Test [5] concerns xenograft U87MG (native). The experiment in a line: immunohistochemistry of xenograft sections. Details: species or system human. Here is the method: as §1, §2
For test [6], the system named is normal human liver sections. As to the kind of experiment: immunohistochemistry with mAb175. As to the method:
as §2
The U87MG cell line only expresses modest levels of the wild-type EGFR (FIG. 66A) and has no detectable EGFR autocrine loop.

In test [7] the test system is EGFR fragments. The experiment in a line: Western blot of GH/EGFR fragment fusion proteins. It is filed as binding, human. Here is the method: The day prior to transfection with these fragments, human 293T embryonic-kidney fibroblasts were seeded at 8×10^5 per well in 6-well tissue culture plates containing 2 ml of media. Cells were transfected with 3-4 μg of plasmid DNA complexed with Lipofectamine™ 2000 (Invitrogen) according to the manufacturer's instructions. […] Parallel membranes were probed overnight with mAb 9B11 (1:5000, Cell Signaling Technology, Danvers, Massachusetts) to detect the c-myc epitope. Membranes were washed in TBST, and incubated in blocking buffer containing horseradish peroxidase-conjugated rabbit anti-mouse IgG (Biorad) at a 1:5000 dilution for 2 h at room temperature. Blots were then washed in TBST, and developed using autoradiographic film following incubation with Western Pico Chemiluminescent Substrate (Pierce, Rockford, Illinois).
(§3) Expression of EGFR proteins on the yeast cell surface was performed as previously described (Johns et al., 2004).

Test [8] concerns EGFR fragments displayed on yeast. The experiment in a line: yeast surface display of EGFR fragments. It is filed as binding, human. As to the method: as §3
Briefly, transformed colonies were grown at 30° C. in minimal media containing yeast nitrogen base, casein hydrolysate, dextrose, and phosphate buffer pH 7.4, on a shaking platform for approximately one day until an OD600 of 5-6 was reached. Yeast cells were then induced for protein display by transferring to minimal media containing galactose, and incubated with shaking at 30° C. for 24 h. Cultures were then stored at 4° C. until analysis. Raw ascites fluid containing the c-myc monoclonal antibody 9E10 was obtained from Covance (Richmond, CA). 1×10^6 yeast cells were washed with ice-cold FACS buffer (PBS containing 1 mg/ml BSA) and incubated with either anti-c-myc ascites (1:50 dilution), or human EGFR monoclonal antibody (10 μg/ml) in a final volume of 50 μl, for 1 hr at 4° C. The cells were then washed with ice cold FACS buffer and incubated with phycoerythrin-labelled anti-mouse IgG (1:25 dilution), in a final volume of 50 μl for 1 h at 4° C., protected from light. After washing the yeast cells with ice-cold FACS buffer, fluorescence data was obtained with a Coulter Epics XL flow cytometer (Beckman-Coulter), and analyzed with WinMDI cytometry software (J. Trotter, Scripps University). […]

Test [9] relates to DU145 cells. The experiment in a line: FACS binding to cell lines. It is filed as cell-based, human. The source says:
Clearly, mAb806 and mAb175 can recognize only a small proportion of the EGFR on cells in the presence of an autocrine stimulation loop.

Test [10] deals with DU145 xenografts. As to the kind of experiment: established xenograft model. It is filed as in vivo, nude mice. As to conditions: day 67; 1 mg i.p. An excerpt:
Xenografts were allowed to establish for 18 days before therapy commenced (3 times a week for 3 weeks on days indicated). At this time the average tumor volume was 90 mm^3 (FIG. 68D).

Test [11] deals with A431 xenografts. As to the kind of experiment: combination therapy with AG1478, preventative model. It is filed as in vivo, mice. The note with it: 0.1 mg mAb806; 400 μg AG1478. Here is the method: AG1478 (4-(3-Chloroanilino)-6,7-dimethoxyquinazoline) is a potent and selective inhibitor of the EGFR kinase versus HER2-neu and platelet-derived growth factor receptor kinase (Calbiochem Cat. No. 658552). […] The results are illustrated in FIG. 12. […] 400 μg AG1478 was administered at 0, 2, 4, 7, 9, and 11 days post xenograft.

Test [12] addresses EGFR of A431 cells (Homo sapiens, UniProt P00533). As to the kind of experiment: ELISA of 806 reactivity in lysate of AG1478 treated cells. It is filed as cell-based. As to conditions: increasing amounts of AG1478 (0.5 μM and 5 μM).
Test [13] deals with amplified / overexpressed wild-type EGFR (human) (UniProt P00533). As to the kind of experiment: IHC glioblastoma, amplified EGFR, no de2-7 EGFR.
Test [14] addresses de2-7 EGFR (human) (UniProt P00533). As to the kind of experiment: IHC glioblastoma, amplified EGFR with de2-7 EGFR.
Test [15] deals with amplified / overexpressed wild-type EGFR (human) (UniProt P00533). The experiment in a line: Scatchard analysis, 125I-labelled 528, A431 cells.
Test [16] has as its target wtEGFR-FLAG on Ba/F3 cells (human) (UniProt P00533). The experiment in a line: FACS median fluorescence, Ba/F3 cells, reference M2 anti-FLAG.
The target of test [17] is C271A/C283A-EGFR on Ba/F3 cells (human) (UniProt P00533). As to the kind of experiment: FACS median fluorescence, Ba/F3 cells, average for four independent clones, reference M2.
Test [18] concerns xenograft U87MGΔEGFR. As to the kind of experiment: immunohistochemistry of xenograft sections. Details: species or system human.
Test [19] has as its target T1, denatured soluble domain of the EGFR (sEGFR) (Homo sapiens, UniProt P00533).
T1 construct: sEGFR is the recombinant extracellular domain (amino acids 1-621) of the wild-type EGFR; made in house; host or cells: CHO cells
The experiment in a line: competition ELISA. It is filed as binding. The note with it: after unlabeled blocking antibody. As to the method: Briefly, the denatured soluble domain of the EGFR (sEGFR) was coated on to ELISA plates. The unlabeled 124 or 1133 antibodies were then added across the plate in increasing concentrations.

Test [20] has as its target T2, EGFR peptide 287-302 (806 peptide epitope) (human, not fully specified (bridges); also: oxidized form in the crystals).
T2 construct: Immobilised by amine, thiol or Pms-Ser coupling; oxidized form in the crystals
T2 peptide: CGADSYEMEEDGVRKC
As to the kind of experiment: BIAcore, immobilised peptide, 200 nM antibody.

Test [21] relates to established A431 xenografts. As to the kind of experiment: in vivo 806 therapy study. As to conditions: 6 x 1 mg IP, versus PBS. Details: species or system BALB/c nude mice. Here is the method: (§4) To establish xenografts, mice were injected subcutaneously into the right and left inguinal mammary line with 1×10^6 A431 […] cells or 1×10^6 U87MG.de2-7 glioma cells in 100 μl of PBS. Tumor volume (TV) was calculated by the formula [(length×width^2)/2] where length was the longest axis and width the measurement at right angles to length. […] Therapy was administered on days 6, 8, 11, 13, 15 and 18 for A431, and days 4, 6, 8, 11, 13 and 15 for the U87MG.de2-7 cell lines respectively. Mean±SEM tumor volumes until termination of the experiments due to ethical considerations of tumor burden are presented in FIG. 91 for the A431 xenograft until day 25, and in FIG. 92 for U87MG.de2-7 xenografts until day 31.

Test [22] relates to established U87MG.de2-7 xenografts. As to the kind of experiment: in vivo 806 therapy study. On the set-up: species or system BALB/c nude mice. The note with it: 6 x 1 mg IP, versus PBS. As to the method:
as §4

Regarding mAb175 (antibody), the values for the dissociation constant Kd in test [1], in test [2] and in [3] were 154 nM, 143 nM and 35 nM, respectively.
Consider “mAb175: murine monoclonal antibody, SEQ ID NO:129 and SEQ ID NO:134”, for which the immunohistochemical staining entry in test [4] is on record as “stains”; in [5], “does not stain”. Also, the staining result in [6] is “does not bind”. Moreover, in [7], the “reactivity with EGFR fragments” value is “reacted with both the 274-501 and 282-501 EGFR fragments; also recorded: did not detect fragments commencing at amino acid 290 or 298; also recorded: a 274-501 EGFR fragment with the mAb806 epitope deleted (Δ287-302) was also negative for mAb175 binding”. Further, the “binding to EGFR fragments” value in test [8] is given as “recognized the yeast fragment 273-621; also recorded: not to fragments 1-176, 1-294, 294-543, or 475-621; also recorded: binds to the denatured fragment of the 273-621”. For the same molecule, the FACS binding entry in test [9] was “bind to DU145 cells”. The mean tumor volume in test [10] worked out at 815 mm^3.
Regarding `COc1cc2ncnc(Nc3cccc(Cl)c3)c2cc1OC` [AG1478, 4-(3-Chloroanilino)-6,7-dimethoxyquinazoline, reference compound], in test [11], the tumor volume entry is “significant reduction of tumor volume”. The “mAb806 binding to EGFR in cell lysate” value in test [12] is on record as “significantly increased”.
As to 528 antibody, the percent of immunoreactive cells in test [13] and in test [14] was above 75% in each case. In addition, in [15], the binding sites per cell (sites per cell) came to 2e+06. In addition, the ratio of antibody binding mAb 528/M2 is 1.37 in test [16] and 1.08 in [17].

B1: mAb1133 (antibody, mouse IgG2a, V domains shown)
VH: DVQLQGSGPSLVKPSQSLSLTCTVTGYSITSDYAWNWIRQFPGNKLEWMGYISYSGNTRYNPSLRSRISITRDTSKNQFFLQLNSVTTEDTATYYCATAGRGFPYWGQGTLVTVSA
VL: DILMTQSPSSMSVSLGDTVNITCHSSQDINSNIGWLQQKPGKSFKGLIYHGTNLDDGVPSRFSGSGSGADYSLTISSLESEDFADYYCVQYGQFPWTFGGGTKLEIKR
notes: Mouse IgG2a; variable domains only
For the molecule B1, the figures for the immunohistochemical staining entry in test [18] and in [4] were “pos” and “pos. (predominantly”, respectively. The “Binding of biotin-labeled 806” value in test [19] is on record as “None”. Besides, the “Binding to mAb806 peptide (RU), maximal” value in test [20] amounted to 800 RU.

B2: hu806: humanized (veneered) 806 antibody, SEQ ID NO:42 and SEQ ID NO:47 (antibody, V domains shown)
VH: MDWTWRILFLVAAATGVHSQVQLQESGPGLVKPSQTLSLTCTVSGYSISSDFAWNWIRQPPGKGLEWMGYISYSGNTRYQPSLKSRITISRDTSKNQFFLKLNSVTAADTATYYCVTAGRGFPYWGQGTLVTVSS
VL: MDWTWRILFLVAAATGVHSDIQMTQSPSSMSVSVGDRVTITCHSSQDINSNIGWLQQKPGKSFKGLIYHGTNLDDGVPSRFSGSGSGTDYTLTISSLQPEDFATYYCVQYAQFPWTFGGGTKLEIKR
In the case of B2, the xenograft growth entry in test [21] was “marked reduction in A431 xenograft growth”; in [22] it was “significant reduction in tumor growth by day 20”.
